Measured values published in patent publication US20260259223A1 (NORDIC BIOSCIENCE A S, published 2026).
Primed or numbered codes have the meaning given here. Where no end group is shown, it is not given here. Biotin′ = not defined here

T1: Elongated standard peptide (Elongated selection peptide) QDSGPEYADVV (human)
T1 construct: also called elongated peptide
T1 peptide: QDSGPEYADVV

T2: Truncated standard peptide (Truncated selection peptide) SGPEYADVV (human)
T2 construct: also called truncated peptide
T2 peptide: SGPEYADVV

T3: Non-sense standard peptide YRDDLKKLLE
T3 construct: also called non-sense peptide
T3 peptide: YRDDLKKLLE

T4: Non-sense coating peptide YRDDLKKLLE-Biotin
T4 construct: also called non-sense coater
T4 peptide: YRDDLKKLLE-{Biotin′}

B1: Standard peptide (Selection peptide) DSGPEYADVV (peptide)
peptide: DSGPEYADVV
notes: Synthetic peptide from Genscript; also called C6A6
B2: monoclonal antibody clone NBH-306-11 8E7-2C11-1F10-2C10 (antibody, mouse IgG1, kappa, V domains shown)
VH: EVKLVESGGDLVKPGGSLKLSCAASGFTFTSYAMSWVRQTPEKRLEWVASVTSGGTHYLDSVKGRFTISRDIARNILYLQMSSLRSEDTAMYFCARGVSFAYWGQGTLVTVSA
VL: DIVMTQSQKFMSTSVGDRVSVTCKASQNVGTDVVWYQQRPGQSPKALMYSASYRYSGVPDRFTGSGSGTDFTLTISNVQSEDLAEYFCQHYDNYPLTFGAGTKLELKR
notes: also called the mAb; C6A6 assay antibody

Tests used:
[1] = target: B2; assay: competitive CLIA: the free standard peptide competes with plate-coated …-K-Biotin for the HRP-labelled mAb (200 ng/mL)
Description: The development of a competitive chemiluminescence immunoassay (CLIA) targeting the C6A6 target sequence included several preliminary optimizing experiments where reagents, concentrations, incubation-time and -temperature were analyzed by several tests. […] The relative light units were measured at all wavelengths within 5 min on a microplate luminometer reader (SpectraMax M5, Molecular Devices, CA, USA). […] Data were analyzed using the SoftMax Pro version 7.0.3 software.
(§1) Two-fold dilutions of four human serum and two rat serum samples were used to assess linearity. Linearity was calculated as a percentage of recovery of the undiluted sample. Antibody specificity was calculated as percentage of signal inhibition by two-fold diluted standard peptide ([…] (SEQ ID NO: 1)), elongated peptide ([…] (SEQ ID NO: 2)), truncated peptide ([…] (SEQ ID NO: 3)), and non-sense peptide ([…] (SEQ ID NO: 17)). The intra- and inter-assay variation was determined by 10 independent runs of five quality controls and two kit controls run in double determinations.

[2] = target: B1; assay: ELISA screening of hybridoma clones / specificity test
[3] = target: T1, Elongated standard peptide (Elongated …); assay: competitive CLIA/ELISA (signal inhibition by two-fold diluted peptide)
Description: (§2) The development of a competitive chemiluminescence immunoassay (CLIA) targeting the C6A6 target sequence included several preliminary optimizing experiments where reagents, concentrations, incubation-time and -temperature were analyzed by several tests. The final C6A6 competitive ELISA procedure was as follows: A 96-well streptavidin-coated white microplate (Greiner Bio-One, Kremsmünster, Austria) was coated with 3 ng/mL biotinylated synthetic peptide ([…]-K-Biotin (SEQ ID NO: 18)) dissolved in assay buffer (10 mM phosphate buffered saline (PBS), 1% bovine serum albumin, 0.1% Tween-20, 0.36% Bronidox, 4 g/L NaCl, adjusted to pH 7.4 at 20° C.) and incubated for 30 min at 20° C. with constant shaking (300 rpm) in darkness. Next, 20 μL/well of standard peptide (100 ng/ml) and samples were added to the appropriate wells, followed by the addition of 100 μL/well of HRP-labelled antibody (generated as described above) diluted in assay buffer to the concertation of 200 ng/ml and incubated for 1 h at 20° C. with constant shaking (300 rpm) in darkness. After each incubation step, wells were washed five times with standard washing buffer (20 mM Tris, 50 mM NaCl, pH 7.2). […] The relative light units were measured at all wavelengths within 5 min on a microplate luminometer reader (SpectraMax M5, Molecular Devices, CA, USA). […] Data were analyzed using the SoftMax Pro version 7.0.3 software.
as §1

[4] = target: T2, Truncated standard peptide (Truncated …); assay: as above
Description: as §2, §1

[5] = target: T3, Non-sense standard peptide YRDDLKKLLE; assay: as above
Description: as §2, §1

[6] = target: T4, Non-sense coating peptide …; assay: CLIA/ELISA on a streptavidin plate coated with the non-sense coating peptide

Binder	IC50 [1]	binding result [2]	binding result [3]	binding result [4]	binding result [5]	binding result [6]
B1	3.86 ng/mL					
B2		binds	no binding	no binding	no binding	no binding
